The source of these data is article PMC3441633 (PLoS ONE, 2012).

The target in the assay is T1, Ras (aa 1-166), bacterially expressed and purified (H-Ras) (UniProt P01112 1-166).
T1 construct: H-Ras aa 1-166 (all Ras constructs were the H-Ras isoform); Used loaded with GDP, loaded with GTPγS, or nucleotide-free (incubated with EDTA without added nucleotide); the nucleotide state is told by the assay; also called Ras 1-166; Ras-GDP; source: E. coli BL21 (pQlink Ras 1-166), purified on nickel beads, His tag cleaved with TEV protease
The assay is described as follows: pull-down; nucleotide-free Ras: 250 nM Ras with 850 nM GST protein on glutathione beads in Loading Buffer (15 mM EDTA, 5 mM MgCl2), 30 min at 30°C, no added nucleotide. Particulars: both partners purified.

B1: GST-PI3KC2β-RBD (aa 368-463) (domain or fragment, UniProt O00750 368-463, looked up)
chain: SPEHLGDEVNLKVTVLCDRLQEALTFTCNCSSTVDLLIYQTLCYTHDDLRNVDVGDFVLKPCGLEEFLQNKHALGSHEYIQYCRKFDIDIRLQLME
notes: also called RBD of PI3KC2β; source: E. coli BL21 (DE3), purified on Glutathione Sepharose beads
For the molecule B1, the binding result is “binds”.
